Target: GFP(+36)
Assay: time-resolved fluorescence anisotropy; AfFtn-GFP(+36) assembly at pH 7.6 with 500 mM NaCl and with 175 mM NaCl; [GFP] = 1 uM; biexponential fit (instrument response, rotational diffusion of the assembly), no homoFRET; triplicate

stoichiometry N: 12 to 1
Substance: AfFtn (from UniProt O29424 1-173)

Source: publication PMC12893043
